Test results reported in US20220411483A1 (Chugai, published 2022).

T1: human FcγRIIa R type extracellular domain with C-terminal His tag (human, UniProt P12318 34-217)
T1 construct: extracellular domain; also called FcgRIIaR
T1 sequence (looked up): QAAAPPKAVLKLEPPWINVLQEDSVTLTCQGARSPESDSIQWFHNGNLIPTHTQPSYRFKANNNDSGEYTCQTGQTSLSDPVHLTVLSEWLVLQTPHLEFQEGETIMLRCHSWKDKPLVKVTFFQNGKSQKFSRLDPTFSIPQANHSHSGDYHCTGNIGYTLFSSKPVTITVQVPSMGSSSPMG

T2: human FcγRIIb extracellular domain with C-terminal His tag (human, UniProt P31994 43-217)
T2 construct: extracellular domain; also called FcgRIIb
T2 sequence (looked up): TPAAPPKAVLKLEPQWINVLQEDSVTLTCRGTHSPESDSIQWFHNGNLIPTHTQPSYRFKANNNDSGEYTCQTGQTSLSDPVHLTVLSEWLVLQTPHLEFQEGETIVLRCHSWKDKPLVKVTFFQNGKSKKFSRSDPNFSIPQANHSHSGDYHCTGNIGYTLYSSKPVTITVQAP

T3: human FcγRIIa H type extracellular domain with C-terminal His tag (human, UniProt P12318 34-217)
T3 construct: extracellular domain; also called FcgRIIaH
T3 sequence (looked up): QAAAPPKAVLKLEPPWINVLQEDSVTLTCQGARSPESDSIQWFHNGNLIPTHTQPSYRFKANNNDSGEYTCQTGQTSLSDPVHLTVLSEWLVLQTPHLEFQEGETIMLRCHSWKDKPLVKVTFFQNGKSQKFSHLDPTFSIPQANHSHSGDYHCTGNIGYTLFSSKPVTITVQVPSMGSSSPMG

B1: IL6R-P743/IL6R-L (antibody, human IgG1, kappa)
heavy: QVQLQESGPGLVKPSETLSLTCAVSGHSISHDHAWSWVRQPPGEGLEWIGFISYSGITNYNPSLQGRVTISRDNSKNTLYLQMNSLRAEDTAVYYCARSLARTTAMDYWGEGTLVTVSSASTKGPSVFPLAPSSKSTSGGTAALGCLVKDYFPEPVTVSWNSGALTSGVHTFPAVLQSSGLYSLSSVVTVPSSSLGTQTYICNVNHKPSNTKVDKKVEPKSCDKTHTCPPCPAPELLGGDSVFLFPPKPKDTLMISRTPEVTCVVVDVSHEDPEVKFNWYVDGVEVHNAKTKPREEQYNSTYRVVSVLTVLHQDWLNGKEYKCKVSNKGLPSSIEKTISKAKGQPREPQVYTLPPSRDELTKNQVSLTCLVKGFYPSDIAVEWESNGQPENNYKTTPPVLDSDGSFFLYSKLTVDKSRWQQGNVFSCSVMHEALHNHYTQKSLSLSP
light: not shown
B2: IL6R-P748/IL6R-L (antibody, human IgG1, kappa)
heavy: QVQLQESGPGLVKPSETLSLTCAVSGHSISHDHAWSWVRQPPGEGLEWIGFISYSGITNYNPSLQGRVTISRDNSKNTLYLQMNSLRAEDTAVYYCARSLARTTAMDYWGEGTLVTVSSASTKGPSVFPLAPSSKSTSGGTAALGCLVKDYFPEPVTVSWNSGALTSGVHTFPAVLQSSGLYSLSSVVTVPSSSLGTQTYICNVNHKPSNTKVDKKVEPKSCDKTHTCPPCPAPELLGQDSVMLFPPKPKDTLMISRTPEVTCVVVDVSPEDPEVKFNWYVDGVEVHNAKTKPREEQENSTYRVVSVLTVLHQDWLNGKEYKCAVSNKALPHPIEKTISKAKGQPREPQVYTLPPSRDELTKNQVSLTCLVKGFYPSDIAVEWESNGQPENNYKTTPPVLDSDGSFFLYSKLTVDKSRWQQGNVFSCSVMHEALHNHYTQKSLSLSP
light: not shown
B3: IL6R-P744/IL6R-L (antibody, human IgG1, kappa)
heavy: QVQLQESGPGLVKPSETLSLTCAVSGHSISHDHAWSWVRQPPGEGLEWIGFISYSGITNYNPSLQGRVTISRDNSKNTLYLQMNSLRAEDTAVYYCARSLARTTAMDYWGEGTLVTVSSASTKGPSVFPLAPSSKSTSGGTAALGCLVKDYFPEPVTVSWNSGALTSGVHTFPAVLQSSGLYSLSSVVTVPSSSLGTQTYICNVNHKPSNTKVDKKVEPKSCDKTHTCPPCPAPELLGGDSVFLFPPKPKDTLMISRTPEVTCVVVDVSHEDPEVKFNWYVDGVEVHNAKTKPREEQYNATYRVVSVLTVLHQDWLNGKEYKCAVSNKALPAPIEKTISKAKGQPREPQVYTLPPSRDELTKNQVSLTCLVKGFYPSDIAVEWESNGQPENNYKTTPPVLDSDGSFFLYSKLTVDKSRWQQGNVFSCSVMHEALHNHYTQKSLSLSP
light: not shown
B4: IL6R-P749/IL6R-L (antibody, human IgG1, kappa)
heavy: QVQLQESGPGLVKPSETLSLTCAVSGHSISHDHAWSWVRQPPGEGLEWIGFISYSGITNYNPSLQGRVTISRDNSKNTLYLQMNSLRAEDTAVYYCARSLARTTAMDYWGEGTLVTVSSASTKGPSVFPLAPSSKSTSGGTAALGCLVKDYFPEPVTVSWNSGALTSGVHTFPAVLQSSGLYSLSSVVTVPSSSLGTQTYICNVNHKPSNTKVDKKVEPKSCDKTHTCPPCPAPELLGQDSVMLFPPKPKDTLMISRTPEVTCVVVDVSPEDPEVKFNWYVDGVEVHNAKTKPREEQENSTYRVVSVLTVLHQDWLNGKEYKCEVSNKALPHPIEKTISKAKGQPREPQVYTLPPSRDELTKNQVSLTCLVKGFYPSDIAVEWESNGQPENNYKTTPPVLDSDGSFFLYSKLTVDKSRWQQGNVFSCSVMHEALHNHYTQKSLSLSP
light: not shown
B5: IL6R-P746/IL6R-L (antibody, human IgG1, kappa)
heavy: QVQLQESGPGLVKPSETLSLTCAVSGHSISHDHAWSWVRQPPGEGLEWIGFISYSGITNYNPSLQGRVTISRDNSKNTLYLQMNSLRAEDTAVYYCARSLARTTAMDYWGEGTLVTVSSASTKGPSVFPLAPSSKSTSGGTAALGCLVKDYFPEPVTVSWNSGALTSGVHTFPAVLQSSGLYSLSSVVTVPSSSLGTQTYICNVNHKPSNTKVDKKVEPKSCDKTHTCPPCPAPELFGQDSVMLFPPKPKDTLMISRTPEVTCVVVDVSHEDPEVKFNWYVDGVEVHNAKTKPREEQENSTYRVVSVLTVLHQDWLNGKEYKCAVSNKALPAPIEKTISKAKGQPREPQVYTLPPSRDELTKNQVSLTCLVKGFYPSDIAVEWESNGQPENNYKTTPPVLDSDGSFFLYSKLTVDKSRWQQGNVFSCSVMHEALHNHYTQKSLSLSP
light: not shown
B6: IL6R-P747/IL6R-L (antibody, human IgG1, kappa)
heavy: QVQLQESGPGLVKPSETLSLTCAVSGHSISHDHAWSWVRQPPGEGLEWIGFISYSGITNYNPSLQGRVTISRDNSKNTLYLQMNSLRAEDTAVYYCARSLARTTAMDYWGEGTLVTVSSASTKGPSVFPLAPSSKSTSGGTAALGCLVKDYFPEPVTVSWNSGALTSGVHTFPAVLQSSGLYSLSSVVTVPSSSLGTQTYICNVNHKPSNTKVDKKVEPKSCDKTHTCPPCPAPELFGQDSVMLFPPKPKDTLMISRTPEVTCVVVDVSHEDPEVKFNWYVDGVEVHNAKTKPREEQENSTYRVVSVLTVLHQDWLNGKEYKCEVSNKALPAPIEKTISKAKGQPREPQVYTLPPSRDELTKNQVSLTCLVKGFYPSDIAVEWESNGQPENNYKTTPPVLDSDGSFFLYSKLTVDKSRWQQGNVFSCSVMHEALHNHYTQKSLSLSP
light: not shown
B7: IL6R-P745/IL6R-L (antibody, human IgG1, kappa)
heavy: QVQLQESGPGLVKPSETLSLTCAVSGHSISHDHAWSWVRQPPGEGLEWIGFISYSGITNYNPSLQGRVTISRDNSKNTLYLQMNSLRAEDTAVYYCARSLARTTAMDYWGEGTLVTVSSASTKGPSVFPLAPSSKSTSGGTAALGCLVKDYFPEPVTVSWNSGALTSGVHTFPAVLQSSGLYSLSSVVTVPSSSLGTQTYICNVNHKPSNTKVDKKVEPKSCDKTHTCPPCPAPELLGGDSVFLFPPKPKDTLMISRTPEVTCVVVDVSHEDPEVKFNWYVDGVEVHNAKTKPREEQYNATYRVVSVLTVLHQDWLNGKEYKCEVSNKALPAPIEKTISKAKGQPREPQVYTLPPSRDELTKNQVSLTCLVKGFYPSDIAVEWESNGQPENNYKTTPPVLDSDGSFFLYSKLTVDKSRWQQGNVFSCSVMHEALHNHYTQKSLSLSP
light: not shown

Tests used:
[1] = biological target: T4, human FcγRIa extracellular domain with C-terminal His tag (human, UniProt P12314 16-292); experiment: SPR, antibody captured, FcgR analyte
T4 construct: Whole entry named; also called FcgRIa
T4 sequence (P12314 16-292): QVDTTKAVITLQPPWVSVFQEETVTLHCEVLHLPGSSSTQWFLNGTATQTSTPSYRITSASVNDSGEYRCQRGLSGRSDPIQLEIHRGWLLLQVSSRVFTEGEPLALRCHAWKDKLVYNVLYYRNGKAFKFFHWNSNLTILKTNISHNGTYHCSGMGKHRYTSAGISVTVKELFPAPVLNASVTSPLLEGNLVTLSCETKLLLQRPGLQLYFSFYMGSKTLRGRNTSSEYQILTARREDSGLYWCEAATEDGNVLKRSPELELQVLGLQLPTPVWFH

[2] = biological target: T1, human FcγRIIa R type extracellular …; experiment: SPR, antibody captured, FcgR analyte
[3] = biological target: T2, human FcγRIIb extracellular domain with …; experiment: SPR, antibody captured, FcgR analyte
[4] = biological target: T4, human FcγRIa extracellular domain with …; experiment: SPR, KD of IL6R-G1d/IL6R-L divided by KD of variant
[5] = biological target: T1, human FcγRIIa R type extracellular …; experiment: as above
[6] = biological target: T3, human FcγRIIa H type extracellular …; experiment: as above
[7] = biological target: T2, human FcγRIIb extracellular domain with …; experiment: as above
[8] = biological target: T5, human FcγRIIIa V type extracellular domain with C-terminal His tag (human, UniProt P08637 17-208); experiment: as above
T5 construct: extracellular domain; also called FcgRIIIaV
T5 sequence (P08637 17-208 F176V): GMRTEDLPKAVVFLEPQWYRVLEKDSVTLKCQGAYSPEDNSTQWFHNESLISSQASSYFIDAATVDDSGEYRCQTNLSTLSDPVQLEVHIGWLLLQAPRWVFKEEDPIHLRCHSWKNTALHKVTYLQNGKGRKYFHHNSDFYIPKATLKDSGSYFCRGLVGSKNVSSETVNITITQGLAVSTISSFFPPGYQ

Binder	Kd [1]	Kd [2]	Kd [3]	Relative FcgRIa-binding Activity [4]	Relative FcgRIIaR-binding Activity [5]	Relative FcgRIIaH-binding Activity [6]	Relative FcgRIIb-binding Activity [7]	Relative FcgRIIIaV-binding Activity [8]
B1	0.018 µM	20 µM	3.6 µM	0.018	0.06	0.013	0.6	0.006
B2	0.1 µM	39 µM	6.2 µM	0.003	0.03	0.01	0.3	0.005
B3	0.01 µM	18 µM	3.2 µM	0.032	0.06	0.013	0.7	0.007
B4	0.052 µM	22 µM	4 µM	0.006	0.05	0.009	0.5	0.004
B5	0.0074 µM	18 µM	3 µM	0.043	0.06	0.01	0.7	0.005
B6	0.09 µM	27 µM	2.7 µM	0.004	0.04	0.012	0.8	0.006
B7	0.005 µM	26 µM	3.1 µM	0.064	0.04	0.014	0.7	0.007
